Data on one molecule can be found in patent US20140141037A1.

The assay addresses RSV F uncleavable ectodomain (Delp21Furx, the ectodomain polypeptide) (respiratory syncytial virus). In words: Size exclusion chromatography of the mixture of RSV F monomer and HRA peptide; monomer alone ~75 mls, reference trimer (FP deletion) ~65 mls. For orientation: In gel filtration, larger molecules generally elute earlier.

In the case of LEGEVNKIKSALLSTNKAVVSLSNGVSVLTSKVLDLKNYIDKQLLPIV [RSV F HRA peptide, RSV residues 160-207], the Retention Volume Superdex P200 was determined as 60 mL.
